Experimental data: the supplement of paper PMC10126150
± gives the standard deviation of the averaged measurements.
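Further: ATP exposure 15 min at 22 °C before imaging.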

These sequences were tested on ATP (assay: switch fluorescence ratio, 500 uM ATP over buffer (Cy3 cluster intensity, sum of 5 cycles each) (fold (ratio)); higher = stronger signal-on switching upon ATP binding; sequences stand for … in TCGTCGGCAGCGTCAGATGTGTATAAGAGACAGTTTTTTTTTTTTTTTTTTTTTTTTT…TC). Conditions: aptamer strand: ATP DNA aptamer (quencher-CACCTGGGGGAGTATTGCGGAGGAAGG + anchor), 100 nM annealed; ATP concentration: 500 uM.
Procedure, shortened: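 The fluorescence ratio divides summed target-cycle Cy3 intensity by summed buffer-cycle Cy3 intensity for each cluster and is averaged per switch-domain sequence. Cy3-labelled switching-strand clusters on a modified Illumina MiSeq flow-cell were annealed to 100 nM quencher-labelled ATP aptamer, then imaged in selection buffer and again after 15 min with 500 uM ATP at 22 °C. Five such cycles were run, with NaOH stripping and re-annealing between them, and clusters outside 100-1000 RFU were excluded.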
AAAAAAATGT showed a switch fluorescence ratio of 1.054 ± 0.01. AAAAAAGAGA showed a switch fluorescence ratio of 0.977 ± 0.046. Work on AAAAAAGGGA yielded a switch fluorescence ratio of 0.995 ± 0.022. For AAAAAAGTAG, the switch fluorescence ratio was 1.03 ± 0.012. AAAAAAGTTA showed a switch fluorescence ratio of 1 ± 0.064. Work on AAAAAATCGT yielded a switch fluorescence ratio of 1.02 ± 0.057. AAAAAATGGA gave a switch fluorescence ratio of 1.01 ± 0.031. For AAAAAATTAA, the switch fluorescence ratio was 1.04 ± 0.026. Work on AAAAAATTTA yielded a switch fluorescence ratio of 0.996 ± 0.043. Sequence AAAAACAAAA has a switch fluorescence ratio of 1.04 ± 0.065. For AAAAACATTT, the switch fluorescence ratio was 0.998 ± 0.051. AAAAACGCTG was tested, and the switch fluorescence ratio was 1.039 ± 0.0093. With AAAAAGGGGA the switch fluorescence ratio was 1 ± 0.032. In the case of AAAAAGGGGG, the switch fluorescence ratio is reported as 1.02 ± 0.045. With AAAAAGTATG the switch fluorescence ratio was 1 ± 0.026. Sequence AAAAAGTCGG has a switch fluorescence ratio of 1.04 ± 0.029. For AAAAAGTCTT, the switch fluorescence ratio was 1 ± 0.015. AAAAAGTTGG gave a switch fluorescence ratio of 1.005 ± 0.0099. AAAAAGTTGT was tested, and the switch fluorescence ratio was 1 ± 0.028. Work on AAAAATGTAT yielded a switch fluorescence ratio of 0.975 ± 0.019. Sequence AAAAATTTTA has a switch fluorescence ratio of 0.993 ± 0.026. With AAAAATTTTG the switch fluorescence ratio was 1.04 ± 0.056. For AAAACAAAAT, the switch fluorescence ratio was 1.05 ± 0.026. AAAACAGTAA showed a switch fluorescence ratio of 1.02 ± 0.032. AAAACGACCC was tested, and the switch fluorescence ratio was 1.11 ± 0.07. Work on AAAACGATAT yielded a switch fluorescence ratio of 1.046 ± 0.0062. AAAACGGTTG gave a switch fluorescence ratio of 1 ± 0.019. In the case of AAAACGTATA, the switch fluorescence ratio is reported as 1.07 ± 0.039. AAAACTCTGT was tested, and the switch fluorescence ratio was 1.04 ± 0.015. Sequence AAAACTTATG has a switch fluorescence ratio of 1.026 ± 0.0033. In the case of AAAACTTTTG, the switch fluorescence ratio is reported as 1.02 ± 0.038. With AAAACTTTTT the switch fluorescence ratio was 1.04 ± 0.051. Work on AAAAGAAAGG yielded a switch fluorescence ratio of 0.985 ± 0.012. With AAAAGACGTT the switch fluorescence ratio was 1 ± 0.029. In the case of AAAAGAGCCC, the switch fluorescence ratio is reported as 1.0191 ± 0.0008. In the case of AAAAGAGGGA, the switch fluorescence ratio is reported as 0.999 ± 0.043. For AAAAGATGGG, the switch fluorescence ratio was 1.02 ± 0.0016. AAAAGCTTTA was tested, and the switch fluorescence ratio was 0.983 ± 0.018. AAAAGGAAAG was tested, and the switch fluorescence ratio was 0.957 ± 0.037. Work on AAAAGGAACT yielded a switch fluorescence ratio of 1.04 ± 0.044. Sequence AAAAGGAAGT has a switch fluorescence ratio of 1.01 ± 0.016. In the case of AAAAGGACTT, the switch fluorescence ratio is reported as 0.994 ± 0.002. Sequence AAAAGGCTAA has a switch fluorescence ratio of 1 ± 0.0037. AAAAGGGCAG gave a switch fluorescence ratio of 0.986 ± 0.031. AAAAGGGGTT gave a switch fluorescence ratio of 1.02 ± 0.043. AAAAGGGTCG showed a switch fluorescence ratio of 1.05 ± 0.087. For AAAAGGGTTG, the switch fluorescence ratio was 0.99 ± 0.033. AAAAGTAAAG gave a switch fluorescence ratio of 0.987 ± 0.033. AAAAGTACGA gave a switch fluorescence ratio of 1.07 ± 0.011. AAAAGTACGC showed a switch fluorescence ratio of 1.09 ± 0.11. Sequence AAAAGTGGGA has a switch fluorescence ratio of 1.03 ± 0.031. In the case of AAAAGTTACA, the switch fluorescence ratio is reported as 1.027 ± 0.0092. AAAAGTTGGG gave a switch fluorescence ratio of 1.01 ± 0.014. In the case of AAAAGTTTTG, the switch fluorescence ratio is reported as 1.01 ± 0.011. AAAATAAGAG showed a switch fluorescence ratio of 1.009 ± 0.0037. Work on AAAATACAGA yielded a switch fluorescence ratio of 1.08 ± 0.17. AAAATAGATT was tested, and the switch fluorescence ratio was 1.032 ± 0.0078. In the case of AAAATATTTA, the switch fluorescence ratio is reported as 1.02 ± 0.012. AAAATATTTG showed a switch fluorescence ratio of 0.964 ± 0.011. In the case of AAAATCGACC, the switch fluorescence ratio is reported as 1.08 ± 0.011. AAAATGCCAC was tested, and the switch fluorescence ratio was 1.04 ± 0.024. AAAATGCGAG showed a switch fluorescence ratio of 1 ± 0.0062. Sequence AAAATGGGGG has a switch fluorescence ratio of 1 ± 0.03. AAAATTAGGA was tested, and the switch fluorescence ratio was 1.02 ± 0.069. Work on AAAATTAGGT yielded a switch fluorescence ratio of 0.9779 ± 0.0093. Work on AAAATTATTG yielded a switch fluorescence ratio of 1 ± 0.022. AAAATTCAGT was tested, and the switch fluorescence ratio was 0.9893 ± 0.0089. AAAATTTAGC showed a switch fluorescence ratio of 0.964 ± 0.054. In the case of AAAATTTTGT, the switch fluorescence ratio is reported as 1 ± 0.021. AAACAAGCTT was tested, and the switch fluorescence ratio was 1.02 ± 0.021. AAACAAGTTG gave a switch fluorescence ratio of 1.02 ± 0.035. In the case of AAACACCGGG, the switch fluorescence ratio is reported as 1.11 ± 0.031. AAACACGGTG gave a switch fluorescence ratio of 1.19 ± 0.17. AAACAGGAGT showed a switch fluorescence ratio of 1.008 ± 0.0037. AAACAGGGAG showed a switch fluorescence ratio of 0.974 ± 0.075. AAACAGGGTA was tested, and the switch fluorescence ratio was 0.9906 ± 0.0079.
